Experimental findings from doi:10.1101/2021.08.19.456998, “Structures of the Human SPAK and OSR1 Conserved C-Terminal (CCT) Domains” (bioRxiv, 2021) are described below.

Where no end group is shown, it is not given here. The star is where a group is joined. Biotin = O=C1N[C@H]2[C@H](CS[C@H]2CCCCC(=O)*)N1

Settings in all cases: both partners purified
In experiment [1] the target is T1, Biotin-C6-SEEGKPQLVGRFQVTSSK (N-terminally biotinylated 18-mer RFQV peptide derived from WNK4) (human).
T1 construct: With No Lysine kinase 4 (WNK4), 18-mer with the RFQV motif; also called biotinylated 18-mer peptide; biotin 18-mer peptide; source: synthetic peptide, bought: GL Biochem, Shanghai Ltd
T1 peptide: {Biotin-C6}-SEEGKPQLVGRFQVTSSK
Description: grating-coupled interferometry (Creoptix WAVE); traditional multicycle kinetics; biotin-C6-18-mer peptide captured on streptavidin chip, cleaved OSR1 as analyte, 25 µM in 1:3 dilutions (six points); 25°C, HBS EP.

Experiment [2] has as its target T1, Biotin-C6-SEEGKPQLVGRFQVTSSK …. The experiment can be described thus: grating-coupled interferometry (Creoptix WAVE); waveRAPID; biotin-C6-18-mer peptide captured on streptavidin chip (about 400 pg/mm^2), cleaved SPAK or OSR1 as analyte at 2 µM; 25°C, HBS EP; heterogeneous ligand model for SPAK.
Experiment [3] concerns the target T2, biotin-OSR (uncleaved human OSR1 CCT domain, residues 423-527, biotinylated on the AviTag) (human, biotin on the lysine of the AviTag (…)).
T2 construct: Oxidative Stress Responsive 1 (OSR1) kinase, human, conserved C-terminal (CCT) domain, residues 423-527; the TEV site was not cut in this form; also called hOSR1-CCT; hOSR-CCT; source: E. coli BL21-CodonPlus (DE3)-RIL, purified (HisTrap, SEC), biotinylated with BirA; not shown: His6, N-terminal, kept; AviTag, N-terminal, kept
The experiment can be described thus: grating-coupled interferometry (Creoptix WAVE); waveRAPID; biotin-SPAK or biotin-OSR immobilised on streptavidin chip (about 1000 pg/mm^2), 18-mer peptide as analyte at 5 µM; 25°C, HBS EP (10 mM HEPES pH 7.4, 150 mM NaCl, 3 mM EDTA, 0.005% Tween20); 1:1 kinetic model, global fit.

Experiment [4] has as its target T3, biotin-SPAK (uncleaved human SPAK CCT domain, residues 441-545, biotinylated on the AviTag) (human, biotin on the lysine of the AviTag (…)).
T3 construct: STE20/SPS1-related proline/alanine-rich kinase (SPAK), human, conserved C-terminal (CCT) domain, residues 441-545; the TEV site was not cut in this form; also called hSPAK-CCT; source: E. coli BL21-CodonPlus (DE3)-RIL, purified (HisTrap, SEC), biotinylated with BirA; not shown: His6, N-terminal, kept; AviTag, N-terminal, kept
Described as above.

Experiment [5] has as its target T3, biotin-SPAK (uncleaved human SPAK CCT …). Description: grating-coupled interferometry (Creoptix WAVE); traditional multicycle kinetics; biotin-SPAK or biotin-OSR immobilised on streptavidin chip, 18-mer peptide as analyte, 50 µM in 3-fold dilutions (six points); 25°C, HBS EP; one-to-one fit.

Usually Kd stands for the constant that tells how readily two partners part at equilibrium. A lower Kd goes with tighter binding.

T2 sequence (chain, as listed by the source): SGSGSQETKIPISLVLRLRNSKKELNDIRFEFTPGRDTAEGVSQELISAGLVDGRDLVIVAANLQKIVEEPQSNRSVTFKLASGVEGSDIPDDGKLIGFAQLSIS

B1: cleaved OSR1 (human OSR1 CCT domain, residues 423-527, tags removed with TEV protease) (domain or fragment)
chain: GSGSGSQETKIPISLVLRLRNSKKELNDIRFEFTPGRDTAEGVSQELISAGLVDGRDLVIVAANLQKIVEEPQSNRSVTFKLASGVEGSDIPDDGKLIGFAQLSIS
notes: glycine of the TEV site (ENLYFQ/G) left after cleavage; OSR1, human, CCT domain, residues 423-527; also called cleaved hOSR1-CCT; hOSR1-CCT; source: E. coli BL21-CodonPlus (DE3)-RIL, purified (HisTrap, SEC, TEV cleavage, SEC in HBS EP); not shown: His6, N-terminal, cleaved; AviTag, N-terminal, cleaved
Take B1: the Kd in experiment [1] came to 6.6 µM; in experiment [2], 2.1 µM.

B2: 18-mer RFQV peptide derived from WNK4 (SEEGKPQLVGRFQVTSSK), unbiotinylated (peptide)
peptide: SEEGKPQLVGRFQVTSSK
notes: With No Lysine kinase 4 (WNK4), 18-mer with the RFQV motif; also called 18-mer peptide; RFQV 18-mer peptide; source: synthetic peptide, bought: GL Biochem, Shanghai Ltd
With B2, the Kd in experiment [3] stood at 2.5 µM; in experiment [4] it was 1.1 µM; in experiment [5], 1.16 µM.
